Laboratory results reported in US20210070875A1.
“And” between values parts separate entries of the source, which are not always exact repeats. Equal entries are not always repeated.

Columns and labels:
[1] = target: human C5aR (human) (UniProt P21730); test: FACS, CHOK1-hC5aR cells, 0.0007 nM antibody
[2] = target: human C5aR (human) (UniProt P21730); test: FACS, CHOK1-hC5aR cells, 6.6600 nM antibody
[3] = target: human C5aR (human) (UniProt P21730); test: FACS, CHOK1-hC5aR cells, 0.0666 nM antibody
[4] = target: human C5aR (human) (UniProt P21730); test: FACS, CHOK1-hC5aR cells, 0.6660 nM antibody
[5] = target: human C5aR (human) (UniProt P21730); test: cell-based or functional assay
[6] = target: human C5aR (human) (UniProt P21730); test: FACS, CHOK1-hC5aR cells, 0.0000 nM antibody (background)
[7] = target: human C5aR (human) (UniProt P21730); test: FACS, CHOK1-hC5aR cells, 66.6000 nM antibody
[8] = target: human C5aR (human) (UniProt P21730); test: FACS, CHOK1-hC5aR cells, 0.0067 nM antibody
[9] = target: human C5aR (human) (UniProt P21730); test: FACS, CHOK1-hC5aR cells, 666.0000 nM antibody
[10] = target: C5aR polypeptide-04 (UniProt P21730); test: ELISA, polypeptide coated at 1.0 µg/mL
[11] = target: C5aR polypeptide-03 (UniProt P21730); test: ELISA, polypeptide coated at 1.0 µg/mL
[12] = target: C5aR polypeptide-05 (UniProt P21730); test: ELISA, polypeptide coated at 1.0 µg/mL
[13] = target: C5aR extracellular N-terminus polypeptide (UniProt P21730); test: ELISA, polypeptide coated at 1.0 µg/mL

Chain of human C5aR (human) (P21730 other isoform, or with tags, fused parts or gaps): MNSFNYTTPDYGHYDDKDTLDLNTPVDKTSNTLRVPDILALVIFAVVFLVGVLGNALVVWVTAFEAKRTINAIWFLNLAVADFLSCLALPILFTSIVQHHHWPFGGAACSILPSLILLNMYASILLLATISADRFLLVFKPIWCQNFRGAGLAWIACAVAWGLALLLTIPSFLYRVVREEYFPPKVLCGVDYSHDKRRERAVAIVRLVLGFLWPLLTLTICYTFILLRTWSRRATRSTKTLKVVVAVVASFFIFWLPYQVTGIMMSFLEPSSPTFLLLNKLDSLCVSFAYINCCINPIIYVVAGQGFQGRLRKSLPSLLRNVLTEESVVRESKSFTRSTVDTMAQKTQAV

With mIgG control (murine IgG) (antibody) the MFI [1] was 2.78 MFI and 2.03 MFI, the MFI [2] was 2.88 MFI and 2.01 MFI and the MFI [3] was 2.81 MFI and 2 MFI. The MFI [4] was 2.96 MFI and 1.99 MFI, the C5a-induced human neutrophil migration, Celltiter-Glo fluorescence intensity value, Parallel sample 1 (fluorescence intensity) [5] was 5170 and the C5a-induced human neutrophil migration, Celltiter-Glo fluorescence intensity value, Parallel sample 2 (fluorescence intensity) [5] was 5000. The C5a-induced human neutrophil migration, Celltiter-Glo fluorescence intensity value, Parallel sample 3 (fluorescence intensity) [5] was 2580, the C5a-induced human neutrophil migration, Celltiter-Glo fluorescence intensity value, Parallel sample 4 (fluorescence intensity) [5] was 2640 and the C5a-mediated calcium flow signal, FLIPR, antibody 0.0 µg/mL [5] was 1870 MFI and 1690 MFI. The C5a-mediated calcium flow signal, FLIPR, antibody 0.01 µg/mL [5] was 2110 MFI and 1890 MFI, the C5a-mediated calcium flow signal, FLIPR, antibody 0.1 µg/mL [5] was 2080 MFI and 1740 MFI and the C5a-mediated calcium flow signal, FLIPR, antibody 0.4 µg/mL [5] was 1920 MFI and 1610 MFI. For the same substance, the C5a-mediated calcium flow signal, FLIPR, antibody 1.1 µg/mL [5] was 1830 MFI and 1790 MFI, the C5a-mediated calcium flow signal, FLIPR, antibody 3.3 µg/mL [5] was 1870 MFI and 1840 MFI and the C5a-mediated calcium flow signal, FLIPR, antibody 10.0 µg/mL [5] was 1730 MFI and 1850 MFI. The C5a-mediated calcium flow signal, FLIPR, antibody 30.0 µg/mL [5] was 1590 MFI, the MFI [6] was 2.69 MFI and 1.99 MFI and the MFI [7] was 3.18 MFI and 2.14 MFI. The MFI [8] was 2.79 MFI and 2.01 MFI and the MFI [9] was 3.22 MFI and 2.21 MFI.

IgG control (human IgG) (antibody) showed an OD450 nm [10] of 0.06 OD450 nm, an OD450 nm [11] of 0.07 OD450 nm and an OD450 nm [12] of 0.07 OD450 nm. The OD450 nm [13] was 0.07 OD450 nm.
